Measurements from patent US20190322730A1.

Columns and labels:
Test in all cases: binding screen of Example 5; the reference itself
C3a (human) = C3a (human) (UniProt P01024)
C3b (human) = C3b (human) (UniProt P01024)
C3c = C3c (UniProt P01024)
C3d = C3d (UniProt P01024)
Factor Bb = Factor Bb (UniProt P00751)
[1] = biological target: human complement component C3 (human) (UniProt P01024)
iC3b = iC3b (UniProt P01024)

Measured: binding relative to negative control mIgG2

Chain of C3a (human) (P01024 672-748 limits assumed): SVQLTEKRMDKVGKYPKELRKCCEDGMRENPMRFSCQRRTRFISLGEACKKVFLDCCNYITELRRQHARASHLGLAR
Chain of C3b (human) (P01024 23-667 limits assumed, chain 1 of 2): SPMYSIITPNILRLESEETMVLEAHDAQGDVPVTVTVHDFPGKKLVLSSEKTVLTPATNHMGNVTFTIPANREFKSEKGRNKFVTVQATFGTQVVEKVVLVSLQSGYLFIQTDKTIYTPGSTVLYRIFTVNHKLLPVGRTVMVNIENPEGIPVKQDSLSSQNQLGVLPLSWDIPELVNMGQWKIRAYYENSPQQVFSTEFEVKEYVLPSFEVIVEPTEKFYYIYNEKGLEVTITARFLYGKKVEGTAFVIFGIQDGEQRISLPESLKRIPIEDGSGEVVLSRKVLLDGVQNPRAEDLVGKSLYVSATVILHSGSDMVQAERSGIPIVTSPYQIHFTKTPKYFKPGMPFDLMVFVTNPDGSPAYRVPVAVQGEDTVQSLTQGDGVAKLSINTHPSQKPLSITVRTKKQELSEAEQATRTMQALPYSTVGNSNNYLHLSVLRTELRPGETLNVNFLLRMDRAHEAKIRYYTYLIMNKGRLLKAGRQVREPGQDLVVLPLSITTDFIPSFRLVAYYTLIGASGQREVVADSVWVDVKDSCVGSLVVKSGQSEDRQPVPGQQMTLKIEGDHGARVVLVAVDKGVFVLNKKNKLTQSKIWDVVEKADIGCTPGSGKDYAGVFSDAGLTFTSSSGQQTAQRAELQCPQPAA
Chain of C3b (human) (P01024 749-1663 limits assumed, chain 2 of 2): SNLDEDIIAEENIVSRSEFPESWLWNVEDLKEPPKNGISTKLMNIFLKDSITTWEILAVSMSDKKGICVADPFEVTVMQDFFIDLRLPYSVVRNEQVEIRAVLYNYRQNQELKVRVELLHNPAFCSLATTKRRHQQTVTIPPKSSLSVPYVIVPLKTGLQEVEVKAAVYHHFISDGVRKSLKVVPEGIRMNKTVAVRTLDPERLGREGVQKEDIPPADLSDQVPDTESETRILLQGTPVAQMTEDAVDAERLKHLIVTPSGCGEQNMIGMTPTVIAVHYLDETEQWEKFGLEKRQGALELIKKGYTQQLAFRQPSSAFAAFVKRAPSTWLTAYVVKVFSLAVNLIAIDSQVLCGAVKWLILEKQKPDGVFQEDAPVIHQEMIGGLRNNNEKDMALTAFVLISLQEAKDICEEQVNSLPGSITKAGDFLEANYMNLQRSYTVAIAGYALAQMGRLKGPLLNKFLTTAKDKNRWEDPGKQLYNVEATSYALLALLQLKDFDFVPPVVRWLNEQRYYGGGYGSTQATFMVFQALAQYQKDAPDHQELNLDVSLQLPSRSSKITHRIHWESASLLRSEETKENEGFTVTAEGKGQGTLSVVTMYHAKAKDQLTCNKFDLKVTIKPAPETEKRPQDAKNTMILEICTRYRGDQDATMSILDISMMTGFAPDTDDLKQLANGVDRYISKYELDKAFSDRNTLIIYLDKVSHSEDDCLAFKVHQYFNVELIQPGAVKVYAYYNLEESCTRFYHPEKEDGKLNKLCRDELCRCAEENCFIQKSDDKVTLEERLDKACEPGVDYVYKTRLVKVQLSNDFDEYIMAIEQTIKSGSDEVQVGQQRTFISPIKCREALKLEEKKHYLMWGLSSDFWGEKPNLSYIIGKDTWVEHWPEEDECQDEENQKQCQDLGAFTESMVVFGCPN
Chain of human complement component C3 (human) (P01024 23-667, chain 1 of 2): as the sequence (P01024 23-667 limits assumed, chain 1 of 2) above
Chain of human complement component C3 (human) (P01024 672-1663, chain 2 of 2): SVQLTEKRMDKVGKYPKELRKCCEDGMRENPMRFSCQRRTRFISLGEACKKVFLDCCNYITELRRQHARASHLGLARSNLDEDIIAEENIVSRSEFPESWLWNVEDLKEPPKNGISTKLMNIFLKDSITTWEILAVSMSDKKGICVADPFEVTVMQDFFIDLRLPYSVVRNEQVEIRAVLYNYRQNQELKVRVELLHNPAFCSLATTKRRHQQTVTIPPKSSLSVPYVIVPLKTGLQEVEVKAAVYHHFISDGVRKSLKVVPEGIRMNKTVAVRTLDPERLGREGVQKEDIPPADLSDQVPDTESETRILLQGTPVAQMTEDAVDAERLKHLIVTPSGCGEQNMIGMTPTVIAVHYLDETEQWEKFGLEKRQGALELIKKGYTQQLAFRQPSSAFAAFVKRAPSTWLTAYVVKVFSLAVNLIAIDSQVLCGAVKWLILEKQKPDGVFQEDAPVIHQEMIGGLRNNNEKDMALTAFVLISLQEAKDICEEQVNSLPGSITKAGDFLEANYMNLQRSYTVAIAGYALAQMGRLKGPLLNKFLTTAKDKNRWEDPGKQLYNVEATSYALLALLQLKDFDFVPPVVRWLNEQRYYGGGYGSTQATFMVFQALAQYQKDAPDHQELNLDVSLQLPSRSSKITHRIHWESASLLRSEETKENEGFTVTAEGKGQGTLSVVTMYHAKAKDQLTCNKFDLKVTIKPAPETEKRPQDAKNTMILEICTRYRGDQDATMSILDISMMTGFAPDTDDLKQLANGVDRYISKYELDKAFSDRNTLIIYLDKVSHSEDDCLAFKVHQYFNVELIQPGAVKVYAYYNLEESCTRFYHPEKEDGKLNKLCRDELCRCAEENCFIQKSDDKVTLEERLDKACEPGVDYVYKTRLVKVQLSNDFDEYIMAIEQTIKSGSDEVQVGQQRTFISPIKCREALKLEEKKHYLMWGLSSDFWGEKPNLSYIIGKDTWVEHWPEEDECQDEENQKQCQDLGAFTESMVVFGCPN
Chain of Factor Bb (P00751 260-764 limits assumed): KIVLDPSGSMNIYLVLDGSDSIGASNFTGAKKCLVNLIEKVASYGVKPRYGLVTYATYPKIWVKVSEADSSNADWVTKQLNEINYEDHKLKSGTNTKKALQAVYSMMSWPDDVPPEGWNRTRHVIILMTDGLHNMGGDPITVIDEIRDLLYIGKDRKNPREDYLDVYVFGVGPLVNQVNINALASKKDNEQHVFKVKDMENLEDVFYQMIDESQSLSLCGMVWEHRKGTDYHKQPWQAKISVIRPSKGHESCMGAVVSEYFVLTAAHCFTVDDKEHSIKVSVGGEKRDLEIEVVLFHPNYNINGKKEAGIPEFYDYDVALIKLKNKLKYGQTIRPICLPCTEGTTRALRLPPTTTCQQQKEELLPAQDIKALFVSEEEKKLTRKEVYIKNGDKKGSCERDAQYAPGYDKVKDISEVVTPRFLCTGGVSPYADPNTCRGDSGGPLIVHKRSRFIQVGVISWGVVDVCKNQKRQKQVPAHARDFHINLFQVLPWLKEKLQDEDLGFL
Chain of C3d (P01024 1002-1303 limits assumed): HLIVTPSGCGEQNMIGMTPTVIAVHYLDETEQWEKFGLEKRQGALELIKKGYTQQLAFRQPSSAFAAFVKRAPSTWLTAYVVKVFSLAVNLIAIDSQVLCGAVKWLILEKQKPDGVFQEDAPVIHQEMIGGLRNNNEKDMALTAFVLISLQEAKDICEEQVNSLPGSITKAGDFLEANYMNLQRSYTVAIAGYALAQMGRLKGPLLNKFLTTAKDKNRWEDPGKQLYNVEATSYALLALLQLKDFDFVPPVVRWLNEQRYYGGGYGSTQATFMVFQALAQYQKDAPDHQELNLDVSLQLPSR

negative control mIgG2 antibody
0: C3a (human) | C3b (human) | C3c | C3d | Factor Bb | [1] | iC3b
